Laboratory results reported in patent US20180030151A1 (MOGAM INSTITUTE FOR BIOMEDICAL RESEARCH, published 2018).
Numbering of substitutions follows the chain as printed. Like-named read-outs stand apart in the source and are kept apart here.

B1: clone 2 (antibody, V domains shown)
VH: EVQLVESGGGLVKPGGSLRLSCAASGFTFSSYAMNWVRQAPGKGLEWVSTITTGGSYTYYADSVEGRFTISRDNAKNSLYLQMNSLRAEDTAVYYCARQDGNFLMDYWGQGTLVTVSS
VL: DVVMTQTPLSLPVTLGQPASISCKSSPSLLDIDGKTYLNWLQQRPGQSPKRLIYLVSKLDSGVPDRFTGSGSGTDFTLKISRVEAEDVGVYYCWQGTHFPFTFGQGTKVEIKR
B2: clone 3 (antibody, V domains shown)
VH: B1 VH with S49G, Y57H, E65D
VL: B1 VL with I32V
B3: clone 8 (antibody, V domains shown)
VH: B1 VH
VL: B1 VL with I32V
B4: clone 13 (antibody, V domains shown)
VH: B1 VH with S49G, Y57H
VL: B1 VL

How the values were obtained:
Assay in all cases: cell-based or functional assay
[1] = target: T1, recombinant human TFPI (tissue factor pathway inhibitor) (human, UniProt P10646 29-304)
[2] = target: T1, recombinant human TFPI (tissue factor …); remark: listed apart in the source
[3] = target: T1, recombinant human TFPI (tissue factor …); remark: listed apart in the source
[4] = target: T1, recombinant human TFPI (tissue factor …); remark: listed apart in the source
[5] = target: T1, recombinant human TFPI (tissue factor …); remark: listed apart in the source
[6] = target: T1, recombinant human TFPI (tissue factor …); remark: listed apart in the source
[7] = target: T1, recombinant human TFPI (tissue factor …); remark: listed apart in the source

Binder	A405, TF/FVIIa/FX complex assay (FX 5 nM), Ab 1.56 nM [1]	A405, TF/FVIIa/FX complex assay (FX 5 nM), Ab 3.13 nM [1]	A405, TF/FVIIa/FX complex assay (FX 5 nM), Ab 6.25 nM [1]	A405, TF/FVIIa/FX complex assay (FX 5 nM), Ab 12.5 nM [1]	A405, TF/FVIIa/FX complex assay (FX 5 nM), Ab 25 nM [1]	A405, TF/FVIIa/FX complex assay (FX 5 nM), Ab 50 nM [1]	A405, TF/FVIIa/FX complex assay (FX 5 nM), Ab 100 nM [1]	% of Normalized, TF/FVIIa/FX complex assay (FX 5 nM), Ab 1.56 nM [2] [%]	% of Normalized, TF/FVIIa/FX complex assay (FX 5 nM), Ab 3.13 nM [2] [%]	% of Normalized, TF/FVIIa/FX complex assay (FX 5 nM), Ab 6.25 nM [2] [%]	% of Normalized, TF/FVIIa/FX complex assay (FX 5 nM), Ab 12.5 nM [2] [%]	% of Normalized, TF/FVIIa/FX complex assay (FX 5 nM), Ab 25 nM [2] [%]	% of Normalized, TF/FVIIa/FX complex assay (FX 5 nM), Ab 50 nM [2] [%]	% of Normalized, TF/FVIIa/FX complex assay (FX 5 nM), Ab 100 nM [2] [%]	FXa assay % of FXa alone, 2.5 nM Ab, 10 nM TFPI [3] [%]	FXa assay % of FXa alone, 5 nM Ab, 10 nM TFPI [3] [%]	FXa assay OD, 2.5 nM Ab, 10 nM TFPI [3]	FXa assay OD, 5 nM Ab, 10 nM TFPI [3]	effect of inhibiting TFPI, FXa activity assay, Ab 10 nM [4] [%]	effect of inhibiting TFPI, FXa activity assay, Ab 20 nM [4] [%]	also measured
B1	0.045	0.045	0.052	0.083	0.416	0.735	0.835	5.5	5.6	6.4	10.3	51.4	90.9	103	8.2	45.3	0.0625	0.345	~79	~76	FXa assay OD, 10 nM Ab, 10 nM TFPI [3]: 0.602; FXa assay OD, 20 nM Ab, 10 nM TFPI [3]: 0.58; FXa assay % of FXa alone, 2.5 nM Ab, 10 nM TFPI [5]: 7.3%; FXa assay % of FXa alone, 5 nM Ab, 10 nM TFPI [5]: 32.8%; FXa assay % of FXa alone, 10 nM Ab, 10 nM TFPI [5]: 76.5%; FXa assay % of FXa alone, 20 nM Ab, 10 nM TFPI [5]: 87.2%; FXa assay OD, 2.5 nM Ab, 10 nM TFPI [5]: 0.0605; FXa assay OD, 5 nM Ab, 10 nM TFPI [5]: 0.271; FXa assay OD, 10 nM Ab, 10 nM TFPI [5]: 0.632; FXa assay OD, 20 nM Ab, 10 nM TFPI [5]: 0.721
B2	0.045	0.046	0.059	0.141	0.527	0.743	0.842	5.6	5.7	7.2	17.4	65.1	91.8	104	10.8	45.5	0.0825	0.346	~70	~81	FXa assay OD, 10 nM Ab, 10 nM TFPI [3]: 0.536; FXa assay OD, 20 nM Ab, 10 nM TFPI [3]: 0.618
B3	0.041	0.05	0.052	0.088	0.391	0.673	0.834	5.1	6.1	6.4	10.8	48.3	83.2	103	7.1	33.8	0.054	0.258	~69	~80	FXa assay OD, 10 nM Ab, 10 nM TFPI [3]: 0.527; FXa assay OD, 20 nM Ab, 10 nM TFPI [3]: 0.61; FXa assay % of FXa alone, 2.5 nM Ab, 10 nM TFPI [5]: 7.4%; FXa assay % of FXa alone, 5 nM Ab, 10 nM TFPI [5]: 31%; FXa assay % of FXa alone, 10 nM Ab, 10 nM TFPI [5]: 70.5%; FXa assay % of FXa alone, 20 nM Ab, 10 nM TFPI [5]: 77.5%; FXa assay OD, 2.5 nM Ab, 10 nM TFPI [5]: 0.0615; FXa assay OD, 5 nM Ab, 10 nM TFPI [5]: 0.256; FXa assay OD, 10 nM Ab, 10 nM TFPI [5]: 0.583; FXa assay OD, 20 nM Ab, 10 nM TFPI [5]: 0.64
B4	–	–	–	–	–	–	–	–	–	–	–	–	–	–	–	–	–	–	~76	~85	% of Normalized, TF/FVIIa/FX complex assay, Ab 1.56 nM [6]: 5.4%; % of Normalized, TF/FVIIa/FX complex assay, Ab 3.13 nM [6]: 6.4%; % of Normalized, TF/FVIIa/FX complex assay, Ab 6.25 nM [6]: 8.8%; % of Normalized, TF/FVIIa/FX complex assay, Ab 12.5 nM [6]: 11.9%; % of Normalized, TF/FVIIa/FX complex assay, Ab 25 nM [6]: 62.2%; % of Normalized, TF/FVIIa/FX complex assay, Ab 50 nM [6]: 96.5%; % of Normalized, TF/FVIIa/FX complex assay, Ab 100 nM [6]: 101%; FXa assay % of FXa alone, 2.5 nM Ab, 10 nM TFPI [5]: 7.8%; FXa assay % of FXa alone, 5 nM Ab, 10 nM TFPI [5]: 44.8%; FXa assay OD, 2.5 nM Ab, 10 nM TFPI [5]: 0.0645; FXa assay OD, 5 nM Ab, 10 nM TFPI [5]: 0.37; FXa assay OD, 10 nM Ab, 10 nM TFPI [5]: 0.624; FXa assay OD, 20 nM Ab, 10 nM TFPI [5]: 0.706; A405, TF/FVIIa/FX complex assay, Ab 1.56 nM [7]: 0.046; A405, TF/FVIIa/FX complex assay, Ab 3.13 nM [7]: 0.054; A405, TF/FVIIa/FX complex assay, Ab 6.25 nM [7]: 0.075; A405, TF/FVIIa/FX complex assay, Ab 12.5 nM [7]: 0.101; A405, TF/FVIIa/FX complex assay, Ab 25 nM [7]: 0.528; A405, TF/FVIIa/FX complex assay, Ab 50 nM [7]: 0.818; A405, TF/FVIIa/FX complex assay, Ab 100 nM [7]: 0.859
